Consider two molecules from patent US20190092846A1.

Where only a bound is given, the exact number is not on record here.

Assay [1] addresses T1, mouse recombinant TGF-β2 (mouse) (UniProt P27090).
T1 sequence (looked up): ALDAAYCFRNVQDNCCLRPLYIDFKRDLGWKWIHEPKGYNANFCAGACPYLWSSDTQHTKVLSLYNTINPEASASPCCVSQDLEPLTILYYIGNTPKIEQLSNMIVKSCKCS

For a further assay, the target named is human TGF-β1 (human) (UniProt P01137). Kind of assay: cell-based or functional assay.
Assay [2] concerns the target T2, human TGF-β3 (human) (UniProt P10600).
T2 sequence: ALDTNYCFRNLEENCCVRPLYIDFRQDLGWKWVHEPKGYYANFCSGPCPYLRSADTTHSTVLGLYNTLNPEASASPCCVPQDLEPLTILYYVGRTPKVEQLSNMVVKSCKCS
The assay is described as follows: cell-based or functional assay.

Assay [3] deals with T3, human recombinant TGF-β2 (human).
T3 sequence: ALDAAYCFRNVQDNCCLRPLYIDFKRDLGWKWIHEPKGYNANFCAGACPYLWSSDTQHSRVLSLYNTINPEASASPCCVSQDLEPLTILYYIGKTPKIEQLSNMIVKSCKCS
The assay is described as follows: cell-based or functional assay.

In assay [4] the target is T1, mouse recombinant TGF-β2 (mouse). The assay is described as follows: cell-based or functional assay.
For assay [5], the target named is T3, human recombinant TGF-β2 (human). The assay is described as follows: ratio of the KD values of Table 4.
The target in assay [6] is T2, human TGF-β3 (human). Kind of assay: BiaCORE (surface plasmon resonance).
Assay [7] deals with T3, human recombinant TGF-β2 (human). Kind of assay: BiaCORE (surface plasmon resonance). On the technique in general: SPR reads the build-up and loss of mass on a sensor chip optically.

human TGF-β1 (human), sequence (P01137 279-390 limits assumed): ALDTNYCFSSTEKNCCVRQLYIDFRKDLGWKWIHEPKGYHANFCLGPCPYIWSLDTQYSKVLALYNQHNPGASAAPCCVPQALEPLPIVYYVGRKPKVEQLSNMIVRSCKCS

B1: CAT-152 (antibody, INN chains, looked up, human IgG4, V domains shown)
VH: EVQLVESGGGVVQPGRSLRLSCAASGFTFSSYGMHWVRQAPGKGLEWVAVIWYDGSNKYYADSVKGRFTISRDNSKNTLYLQMDSLRAEDTAVYYCGRTLESSLWGQGTLVTVSS
VL: SSELTQDPAVSVALGQTVRITCQGDSLRSYYASWYQQKPGQAPVLVIYGKNNRPSGIPDRFSGSSSGNTASLTITGAQAEDEADYYCNSRDSSSTHRGVFGGGTKLTVL
Usually Kd stands for the constant that tells how readily two partners part at equilibrium. On to B1, for which the IC50 (read off the curve) (CAGA-12 luciferase reporter gene assay, HEK293T/17) in assay [1] is 0.3 nM. For the same molecule, the RGA (CAGA-12 luc/Smad-2/3 RGA; IC 50 [pM]) with human TGF-β1 (human) was more than 100000 pM; with human TGF-β3 (human) [2], 1230 pM; in assay [3], 26 pM; in assay [4] it was 298 pM. Besides, the fold lower KD for TGFβ2 than for TGFbeta 3 in assay [5] amounted to 16 fold. In addition, the Kd in the assay with human TGF-β3 (human) [6] was 1.18 nM; in assay [7], 0.073 nM.

B2: 1D11 (antibody, from another filing, V domains shown)
VH: QVQLQQSGPELVRPGASVKLSCKASGYIFITYWMNWVKQRPGQGLEWIGQIFPASGSTNYNEMFEGKATLTVDTSSSTAYMQLSSLTSEDSAVYYCARGDGNYALDAMDYWGQGTSVTVSS
VL: DIVLTQSPASLAVSLGQRATISCRASESVDSYGNSFMHWYQQKSGQPPKLLIYLASNLESGVPARFSGSGSRTDFTLTIDPVEADDAATYYCQQNNEDPLTFGAGTKLEIK
Take B2: the RGA (CAGA-12 luc/Smad-2/3 RGA; IC 50 [pM]) in assay [4] is more than 100000 pM.
